Assay results published in PMC3245711.

Biological target: human KCNJ12 channel (pND-CTFH construct, C-terminal FLAG and octa-histidine tags) (human) (UniProt Q14500)
Experiment: SEC

Sequence of human KCNJ12 channel (pND-CTFH construct, C-terminal FLAG and octa-histidine tags) (Q14500 whole entry): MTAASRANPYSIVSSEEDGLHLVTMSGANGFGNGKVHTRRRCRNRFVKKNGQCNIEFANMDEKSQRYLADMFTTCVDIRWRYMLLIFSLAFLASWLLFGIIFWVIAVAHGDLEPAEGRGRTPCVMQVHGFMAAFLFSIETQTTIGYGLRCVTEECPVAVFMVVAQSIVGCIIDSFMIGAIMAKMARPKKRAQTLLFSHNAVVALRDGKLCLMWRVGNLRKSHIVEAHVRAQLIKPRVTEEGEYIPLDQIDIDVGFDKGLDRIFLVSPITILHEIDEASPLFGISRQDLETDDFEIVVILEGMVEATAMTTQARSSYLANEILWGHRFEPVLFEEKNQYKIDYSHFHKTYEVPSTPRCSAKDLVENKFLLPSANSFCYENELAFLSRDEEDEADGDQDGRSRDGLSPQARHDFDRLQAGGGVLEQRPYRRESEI

stoichiometry N: 4
Substance: human KCNJ12 channel (pND-CTFH construct, C-terminal FLAG and octa-histidine tags) (from UniProt Q14500 1-433) (natural protein)
